Experimental findings from patent US20230110287A1 (SCOUT BIO, published 2023) are described below.

Test [1] has as its target NGF (added at 10 ng/mL to TF-1 cell cultures). As to the kind of experiment: cell-based or functional assay.
Test [2] deals with T1, mouse (murine) NGF (mouse, UniProt P01139 122-241, limits assumed).
T1 construct: also called muNGF; beta muNGF
As to the kind of experiment: ELISA on plate-coated murine NGF (0.1 ug/ml), detection with goat anti-feline IgG-HRP, Abs 450. The protocol: ELISA plates were coated with 0.1 μg/ml mouse (murine) NGF (muNGF) and blocked with PBS/0.05% Tween 20/1% BSA. muNGF-coated wells were then incubated for 1 hour at room temperature with antibody preparations, diluted in PBS/0.05% Tween 20/1% BSA (100 μl/well). Antibody concentrations ranging from 100 ng/ml to 1.56 ng/ml were used to establish a binding curve. After washing, the plates were incubated with a 1/5,000 dilution of goat anti-feline IgG-HRP in PBS/0.05% Tween 20/1% BSA. Plates were washed with PBS/0.05% Tween 20 and developed by the addition of TMB substrate. Development was stopped by the addition of 2M H₂SO₄, absorbance read at 450 nm and background values were subtracted from the absorbance readings.
Background: ELISA stands for enzyme-linked immunosorbent assay.

The target in test [3] is T1, mouse (murine) NGF. Nature of the test: ELISA on murine NGF, Abs 450.

T1 sequence (P01139 122-241 limits assumed): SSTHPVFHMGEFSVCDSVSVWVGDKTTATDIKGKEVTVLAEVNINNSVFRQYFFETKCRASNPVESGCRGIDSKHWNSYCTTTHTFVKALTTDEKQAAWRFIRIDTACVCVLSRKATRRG
NGF (added at 10 ng/mL to TF-1 cell cultures), sequence (P01138 122-241): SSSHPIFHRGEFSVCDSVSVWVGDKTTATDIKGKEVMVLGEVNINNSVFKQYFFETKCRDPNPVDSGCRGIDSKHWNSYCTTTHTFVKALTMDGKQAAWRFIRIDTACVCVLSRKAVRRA

B1: felinized anti-NGF monoclonal antibody Fe1 (antibody, V domains shown)
VH: QVQLMESGADLVQPSESLRLTCVASGLSLTNNNVNWVRQAPGKGLEWMGGVWAGGATDYNSALKSRLTITRDTSKNTVFLQMHSLQSEDTATYYCARDGGYSSSTLYAMDAWGQGTTVTVSA
VL: DIEMTQSPLSLSATPGETVSISCRASEDIYNALAWYLQKPGRSPRLLIYNTDTLHTGVPDRFSGSGSGTDFTLKISRVQTEDVGVYFCQHYFHYPRTFGQGTKLELKR
notes: Expressed in CHO cells
In the case of B1, the “IC50 (read off the curve), NGF-driven TF-1 cell proliferation” value in test [1] was roughly 0.05 µg/mL. The binding result with mouse (murine) NGF [2] was “binds”.

B2: caninized anti-NGF monoclonal antibody SCB01 (antibody, V domains shown)
VH: EVTLQESGPGLVKPSQTLSLTCVVSGLSLTNNNVNWVRQRPGRGLEWMGGVWAGGATDYNSALKSRISITRDTAKNQVSLQLSSMTTEDTAVYYCARDGGYSSSTLYAMDAWGQGTLVTVSS
VL: EIVMTQSPASLSLSQEEKVTITCRASEDIYNALAWYQQKPGQAPKLLIYNTDTLHTGVPSRFSGSGSGTDYSFTISSLEPEDVAVYFCQHYFHYPRTFGAGTKVELK
For B2, in the test with mouse (murine) NGF [3], the binding result was “binds”.
